Test results: paper PMC12272874

Target: N-terminal FMN-binding domain of human methionine synthase reductase (ΔCMTRR, residues 1 to 231) (UniProt Q9UBK8)
Assay: stopped-flow absorption spectroscopy; MTR•cob(II)alamin (40 μM) rapidly mixed with ΔCMTRRhq (70 μM) in Buffer D (100 mM potassium phosphate, pH 7.4), anaerobic, 24 °C; increase in absorbance at 464 nm (loss of His-785 coordination) over 60 s, double exponential fit
Settings: other: stopped-flow absorption spectroscopy

Chain of N-terminal FMN-binding domain of human methionine synthase reductase (ΔCMTRR, residues 1 to 231) (Q9UBK8 1-231, stated change not applied): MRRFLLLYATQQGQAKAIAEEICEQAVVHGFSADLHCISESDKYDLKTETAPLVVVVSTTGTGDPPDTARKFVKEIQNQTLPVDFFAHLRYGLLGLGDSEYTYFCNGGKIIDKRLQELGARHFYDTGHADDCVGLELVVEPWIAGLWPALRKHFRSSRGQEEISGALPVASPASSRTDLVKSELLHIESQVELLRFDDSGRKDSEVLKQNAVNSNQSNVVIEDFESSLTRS
Chain of P1173L variant of human methionine synthase (MTR), full-length recombinant (chain, as listed by the source P1173L): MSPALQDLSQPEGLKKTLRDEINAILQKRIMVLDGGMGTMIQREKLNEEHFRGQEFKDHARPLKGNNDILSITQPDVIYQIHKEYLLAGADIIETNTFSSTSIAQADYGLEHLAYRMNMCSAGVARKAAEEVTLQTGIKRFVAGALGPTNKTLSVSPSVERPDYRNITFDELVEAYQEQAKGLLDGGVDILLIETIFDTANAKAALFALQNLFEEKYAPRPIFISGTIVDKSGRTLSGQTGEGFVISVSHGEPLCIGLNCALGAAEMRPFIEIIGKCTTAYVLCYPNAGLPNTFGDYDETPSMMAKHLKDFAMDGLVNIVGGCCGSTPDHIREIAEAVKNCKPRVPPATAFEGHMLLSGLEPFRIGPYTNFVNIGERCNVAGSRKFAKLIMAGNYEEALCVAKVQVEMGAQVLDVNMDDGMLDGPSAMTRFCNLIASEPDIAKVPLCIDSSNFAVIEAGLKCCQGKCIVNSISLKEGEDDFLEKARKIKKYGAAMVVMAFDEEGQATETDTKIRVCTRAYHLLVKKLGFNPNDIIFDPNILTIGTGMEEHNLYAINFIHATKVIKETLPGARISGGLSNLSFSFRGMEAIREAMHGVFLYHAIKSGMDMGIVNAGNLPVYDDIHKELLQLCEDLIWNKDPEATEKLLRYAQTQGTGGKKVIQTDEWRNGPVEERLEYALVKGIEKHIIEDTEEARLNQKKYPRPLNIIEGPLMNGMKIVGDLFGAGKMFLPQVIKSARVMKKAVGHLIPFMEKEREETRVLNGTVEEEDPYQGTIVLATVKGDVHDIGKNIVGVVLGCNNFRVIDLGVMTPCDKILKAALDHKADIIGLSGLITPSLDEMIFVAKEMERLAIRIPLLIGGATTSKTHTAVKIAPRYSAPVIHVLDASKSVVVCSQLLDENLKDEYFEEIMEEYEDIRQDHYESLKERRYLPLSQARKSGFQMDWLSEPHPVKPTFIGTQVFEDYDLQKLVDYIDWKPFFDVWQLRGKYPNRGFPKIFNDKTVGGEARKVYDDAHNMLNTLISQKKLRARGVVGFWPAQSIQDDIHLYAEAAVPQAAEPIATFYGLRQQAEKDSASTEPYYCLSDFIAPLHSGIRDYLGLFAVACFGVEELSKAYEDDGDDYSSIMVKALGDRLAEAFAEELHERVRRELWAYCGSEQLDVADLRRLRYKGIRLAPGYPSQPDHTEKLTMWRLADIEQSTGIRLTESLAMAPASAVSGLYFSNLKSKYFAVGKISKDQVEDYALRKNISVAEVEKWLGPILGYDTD
Chain of Human methionine synthase (MTR), wild-type, full-length recombinant (chain, as listed by the source): as the sequence (chain, as listed by the source P1173L) above, with L1173P counted along it

Substance: P1173L variant of human methionine synthase (MTR), full-length recombinant
- observed rate constant for complex formation (kobs): the observed rate constant for complex formation was 0.1 ± 0.01 s^−1

Substance: Human methionine synthase (MTR), wild-type, full-length recombinant
- observed rate constant for complex formation (kobs): the observed rate constant for complex formation was 0.1 ± 0.01 s^−1
